Target: T1, recombinant human 4-1BB-Fc chimera (R&D Systems) (human, UniProt Q07011 24-186)
T1 construct: Bought; Covalently coupled to a CM5 chip at 500 resonance units; also called 4-IBB-Fc; recombinant 4-1BB; Fc part of the bought chimera not given, not described
Assay: SPR (BIAcore 2000), 4-1BB-Fc coupled to CM5 chip, ligand in flow, 25°C

B1: FLAG-4-1BBL (Alexis), FLAG peptide coupled to the TNF homology domain of human 4-1BBL through an undefined 11 aa linker (ligand, UniProt P41273 93-254, looked up)
chain: AQLVAQNVLLIDGPLSWYSDPGLAGVSLTGGLSYKEDTKELVVAKAGVYYVFFQLELRRVVAGEGSGSVSLALHLQPLRSAAGAAALALTVDLPPASSEARNSAFGFQGRLLHLSAGQRLGVHLHTEARARHAWQLTQGATVLGLFRVTPEIPAGLPSPRSE
notes: domain: TNF homology domain (THD); Bought from Alexis, produced in HEK293; also called FLAG-tagged 4-1BBL; soluble FLAG-4-1BBL; not shown: FLAG peptide (8aa); undefined 11aa linker
  Kd: 55.2 nM
  fold lower association rate (kon) against WT AviTag-4-1BBL: 30 fold
  koff: 0.00037 s⁻¹
  kon: 6700 M⁻¹ s⁻¹

Reference: EP1736482A1 (INSERM (Institut National de la Santé et de la Recherche …, dated 2006)
